In the supplement of paper PMC10567573 one finds protein stability index data, which are given here for 94 variants.

The labels stand for the following.
B1: KLHL14 (parent)
chain: WLYCYDPVMDVWARKQDMNTKRAI
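Further: lentivirally expressed fusions sorted by FACS into six bins by GFP to DsRed ratio, PSI derived from sequencing read proportions per bin multiplied by bin number.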

The variants in the data set derive from B1. In words: protein stability index of a GFP-peptide fusion (GPS, HEK-293T) (PSI 1-6); higher = more stable. The following applies: c terminus: a fixed tail appended.
With WLYCYDPVMDVWARKQYMNTKRAI [D17Y], the protein stability index was 1.67.

With WLYCYDPVMDVWARKQCMNTKRAI [D17C], the protein stability index is 1.74.

As to WLYCYDPVMDVWARKQTMNTKRAI [D17T], the protein stability index stood at 1.78.

Take WLYCYDPVMDVWARKQFMNTKRAI [D17F]: the protein stability index turned out to be 2.24.

On to WLYCYDPVMDVWARKQGMNTKRAI [D17G], for which the protein stability index was 1.97.

Take WLYCYDPVMDVWARKQMMNTKRAI [D17M]: the protein stability index was found to be 2.2.

Take WLYCYDPVMDVWARKQWMNTKRAI [D17W]: the protein stability index is 2.58.

For the variant WLYCYDPVMDVWARKQKMNTKRAI [D17K], the protein stability index came out at 1.65.

On to WLYCYDPVMDVWARKQAMNTKRAI [D17A], for which the protein stability index stood at 2.33.

Turning to WLYCYDPVMDVWARKQHMNTKRAI [D17H], the protein stability index was determined as 2.21.

On to WLYCYDPVMDVWARKQRMNTKRAI [D17R], for which the protein stability index amounted to 2.34.

Take WLYCYDPVMDVWARKQLMNTKRAI [D17L]: the protein stability index turned out to be 2.48.

Regarding WLYCYDPVMDVWARKQSMNTKRAI [D17S], the protein stability index is 2.38.

As for WLYCYDPVMDVWARKQIMNTKRAI [D17I], the protein stability index worked out at 1.94.

Regarding WLYCYDPVMDVWARKQEMNTKRAI [D17E], the protein stability index was determined as 1.8.

For the variant WLYCYDPVMDVWARKQQMNTKRAI [D17Q], the protein stability index came out at 2.06.

With WLYCYDPVMDVWARKQPMNTKRAI [D17P], the protein stability index is 2.16.

With WLYCYDPVMDVWARKQNMNTKRAI [D17N], the protein stability index stood at 1.91.

Regarding WLYCYDPVMDVWARKQVMNTKRAI [D17V], the protein stability index was determined as 2.06.

Regarding WLYCYDPVMDVWARKQDINTKRAI [M18I], the protein stability index turned out to be 2.28.

With WLYCYDPVMDVWARKQDDNTKRAI [M18D], the protein stability index was determined as 3.05.

Turning to WLYCYDPVMDVWARKQDLNTKRAI [M18L], the protein stability index stood at 1.82.

In the case of WLYCYDPVMDVWARKQDRNTKRAI [M18R], the protein stability index stood at 2.48.

For the variant WLYCYDPVMDVWARKQDQNTKRAI [M18Q], the protein stability index is 2.08.

As for WLYCYDPVMDVWARKQDHNTKRAI [M18H], the protein stability index is 2.55.

WLYCYDPVMDVWARKQDYNTKRAI [M18Y]: the protein stability index was found to be 2.17.

In the case of WLYCYDPVMDVWARKQDFNTKRAI [M18F], the protein stability index was determined as 2.56.

Take WLYCYDPVMDVWARKQDSNTKRAI [M18S]: the protein stability index came to 2.39.

With WLYCYDPVMDVWARKQDWNTKRAI [M18W], the protein stability index was determined as 2.86.

As to WLYCYDPVMDVWARKQDKNTKRAI [M18K], the protein stability index was found to be 2.1.

In the case of WLYCYDPVMDVWARKQDPNTKRAI [M18P], the protein stability index is 1.98.

With WLYCYDPVMDVWARKQDNNTKRAI [M18N], the protein stability index is 2.77.

For the variant WLYCYDPVMDVWARKQDENTKRAI [M18E], the protein stability index stood at 2.4.

Take WLYCYDPVMDVWARKQDCNTKRAI [M18C]: the protein stability index came to 1.86.

With WLYCYDPVMDVWARKQDVNTKRAI [M18V], the protein stability index was determined as 2.19.

Regarding WLYCYDPVMDVWARKQDTNTKRAI [M18T], the protein stability index is 2.13.

For the variant WLYCYDPVMDVWARKQDANTKRAI [M18A], the protein stability index was determined as 2.15.

Take WLYCYDPVMDVWARKQDGNTKRAI [M18G]: the protein stability index worked out at 3.03.

As for WLYCYDPVMDVWARKLDMNTKRAI [Q16L], the protein stability index came out at 1.72.

Consider WLYCYDPVMDVWARKKDMNTKRAI [Q16K], for which the protein stability index worked out at 1.7.

WLYCYDPVMDVWARKRDMNTKRAI [Q16R]: the protein stability index turned out to be 1.95.

With WLYCYDPVMDVWARKIDMNTKRAI [Q16I], the protein stability index worked out at 1.81.

Turning to WLYCYDPVMDVWARKYDMNTKRAI [Q16Y], the protein stability index turned out to be 1.69.

Regarding WLYCYDPVMDVWARKGDMNTKRAI [Q16G], the protein stability index was found to be 2.25.

For WLYCYDPVMDVWARKADMNTKRAI [Q16A], the protein stability index stood at 2.42.

For WLYCYDPVMDVWARKEDMNTKRAI [Q16E], the protein stability index amounted to 2.4.

On to WLYCYDPVMDVWARKFDMNTKRAI [Q16F], for which the protein stability index worked out at 1.85.

Consider WLYCYDPVMDVWARKPDMNTKRAI [Q16P], for which the protein stability index was determined as 1.85.

As for WLYCYDPVMDVWARKVDMNTKRAI [Q16V], the protein stability index came out at 2.29.

Regarding WLYCYDPVMDVWARKTDMNTKRAI [Q16T], the protein stability index amounted to 1.83.

As to WLYCYDPVMDVWARKNDMNTKRAI [Q16N], the protein stability index stood at 2.16.

Consider WLYCYDPVMDVWARKMDMNTKRAI [Q16M], for which the protein stability index is 2.5.

In the case of WLYCYDPVMDVWARKSDMNTKRAI [Q16S], the protein stability index was 1.94.

For WLYCYDPVMDVWARKWDMNTKRAI [Q16W], the protein stability index was determined as 2.7.

Consider WLYCYDPVMDVWARKHDMNTKRAI [Q16H], for which the protein stability index came to 2.27.

As to WLYCYDPVMDVWARKDDMNTKRAI [Q16D], the protein stability index was determined as 2.15.

With WLYCYDPVMDVWARKCDMNTKRAI [Q16C], the protein stability index worked out at 1.81.

Consider WLYCYDPVMDVWASKQDMNTKRAI [R14S], for which the protein stability index was 1.88.

Take WLYCYDPVMDVWAGKQDMNTKRAI [R14G]: the protein stability index stood at 1.81.

On to WLYCYDPVMDVWAIKQDMNTKRAI [R14I], for which the protein stability index stood at 1.84.

Consider WLYCYDPVMDVWAYKQDMNTKRAI [R14Y], for which the protein stability index was 1.81.

Regarding WLYCYDPVMDVWALKQDMNTKRAI [R14L], the protein stability index stood at 2.36.

For WLYCYDPVMDVWAVKQDMNTKRAI [R14V], the protein stability index came to 2.62.

As for WLYCYDPVMDVWATKQDMNTKRAI [R14T], the protein stability index turned out to be 1.54.

Consider WLYCYDPVMDVWAWKQDMNTKRAI [R14W], for which the protein stability index is 1.85.

As to WLYCYDPVMDVWANKQDMNTKRAI [R14N], the protein stability index amounted to 1.77.

For WLYCYDPVMDVWAQKQDMNTKRAI [R14Q], the protein stability index came to 2.45.

For the variant WLYCYDPVMDVWAPKQDMNTKRAI [R14P], the protein stability index is 2.23.

In the case of WLYCYDPVMDVWAKKQDMNTKRAI [R14K], the protein stability index came to 1.9.

Turning to WLYCYDPVMDVWAHKQDMNTKRAI [R14H], the protein stability index came to 1.97.

WLYCYDPVMDVWAMKQDMNTKRAI [R14M]: the protein stability index was 1.93.

Take WLYCYDPVMDVWARKQDMATKRAI [N19A]: the protein stability index was determined as 1.59.

With WLYCYDPVMDVWARKQDMCTKRAI [N19C], the protein stability index stood at 1.76.

In the case of WLYCYDPVMDVWARKQDMETKRAI [N19E], the protein stability index turned out to be 1.81.

As to WLYCYDPVMDVWARKQDMDTKRAI [N19D], the protein stability index worked out at 2.27.

With WLYCYDPVMDVWARAQDMNTKRAI [K15A], the protein stability index was found to be 1.68.

For WLYCYDPVMDVWARCQDMNTKRAI [K15C], the protein stability index worked out at 2.29.

As for WLYCYDPVMDVWARIQDMNTKRAI [K15I], the protein stability index amounted to 2.11.

WLYCYDPVMDVWAREQDMNTKRAI [K15E]: the protein stability index was 2.21.

On to WLYCYDPVMDVWARWQDMNTKRAI [K15W], for which the protein stability index is 1.48.

As for WLYCYDPVMDVWARFQDMNTKRAI [K15F], the protein stability index is 1.76.

For WLYCYDPVMDVWARVQDMNTKRAI [K15V], the protein stability index came to 1.89.

WLYCYDPVMDVWARGQDMNTKRAI [K15G]: the protein stability index turned out to be 1.56.

Consider WLYCYDPVMDVWARYQDMNTKRAI [K15Y], for which the protein stability index is 2.08.

In the case of WLYCYDPVMDVWARNQDMNTKRAI [K15N], the protein stability index stood at 2.03.

Consider WLYCYDPVMDVWARLQDMNTKRAI [K15L], for which the protein stability index amounted to 2.21.

For the variant WLYCYDPVMDVWARHQDMNTKRAI [K15H], the protein stability index stood at 1.94.

Take WLYCYDPVMDVWARTQDMNTKRAI [K15T]: the protein stability index amounted to 1.71.

With WLYCYDPVMDVWARPQDMNTKRAI [K15P], the protein stability index is 1.64.

As to WLYCYDPVMDVWARQQDMNTKRAI [K15Q], the protein stability index is 1.95.

Regarding WLYCYDPVMDVWARMQDMNTKRAI [K15M], the protein stability index is 1.54.

On to WLYCYDPVMDVWARSQDMNTKRAI [K15S], for which the protein stability index came out at 1.79.

In the case of WLYCYDPVMDVWARRQDMNTKRAI [K15R], the protein stability index came to 2.14.

For WLYCYDPVMDVWARDQDMNTKRAI [K15D], the protein stability index was 1.97.
